B1: mouse anti-human BChE monoclonal antibody 11D8 (antibody, V domains shown)
VH: QVQLQQSGAELARPGASVKLSCKASGYTFTSQWLQWVKQRPGQGLEWIGAIYPGDGDTRYTQKFKGKATLTADKSSSTAYMQLTNLAPEDSAVYYCARSSMDYWGQGTSVTVSS
VL: DILLTQSPAILSVSPGERVRLSCRASQSCGTSIYWYQQRTNGSPRLLIMYASEPFSGIPSRFSGSGSGTDFTLSINSVESEDIADYYCQQSNSWPWTFGGGTRLEIK
B2: mouse anti-human BChE monoclonal antibody B2 12-1 (antibody, V domains shown)
VH: EVQLQQSGPELVKPGASVKISCKASGYTFTDYSMHWVKLSHGKSLEWIGYIYPYNDDTDYNQKFKTKATLTVDSSSSITYLELRSLTSEDSAVYYCARSDGYSYYFDYWGQGTTLTVSS
VL: DIVMTQSPATLSVTPGDRVSLSCRASQSISDYLHWYQQKSHESPRLLIKYASQSISGIPSRFSGGGSGSDFTLSINSVEPEDVGVYYCQNGHRFPLTFGAGTKLELK

Target: human butyrylcholinesterase (human (endogenous in plasma), UniProt P06276)
Sequence (P06276 29-602): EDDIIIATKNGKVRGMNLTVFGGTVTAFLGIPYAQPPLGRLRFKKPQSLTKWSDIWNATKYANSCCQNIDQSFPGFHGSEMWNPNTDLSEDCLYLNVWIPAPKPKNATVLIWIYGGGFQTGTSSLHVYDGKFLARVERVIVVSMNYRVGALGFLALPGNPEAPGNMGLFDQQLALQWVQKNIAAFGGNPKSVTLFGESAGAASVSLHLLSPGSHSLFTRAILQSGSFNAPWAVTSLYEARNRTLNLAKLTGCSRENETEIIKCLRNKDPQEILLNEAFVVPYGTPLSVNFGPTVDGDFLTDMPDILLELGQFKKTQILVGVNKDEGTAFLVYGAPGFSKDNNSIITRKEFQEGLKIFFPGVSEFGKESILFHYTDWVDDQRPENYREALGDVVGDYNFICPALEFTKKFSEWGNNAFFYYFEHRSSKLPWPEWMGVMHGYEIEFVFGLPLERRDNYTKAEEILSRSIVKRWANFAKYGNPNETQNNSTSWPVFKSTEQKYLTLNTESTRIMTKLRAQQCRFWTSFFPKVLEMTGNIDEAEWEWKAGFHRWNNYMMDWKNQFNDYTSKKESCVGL
Experiment: pull-down

Binder	binding result
B1	binds
B2	binds

— paper PMC5097833 (Chemico-biological interactions, 2015)
